# Results from publication doi:10.1101/742957.
# Values joined by “and” are separate entries in the source; they are usually repeats but may differ in a detail not shown here. Equal values may be shown once.
# Biological target: Recombinant human transferrin (human) (UniProt P02787)
# Assay: SEC-MALS
substance,measurement,value
Recombinant human transferrin (from UniProt P02787 20-698) (natural protein),percent dimer,12%
same,percent trimer,2%
same,stoichiometry N,2 and 3
